In patent US20210070875A1 (SHANGHAI PHARMAEXPLORER, published 2021):

B1: 42B5G7D1 (antibody, V domains shown)
VH: QVQLQQSGPELVKPGASVKISCKASGYVFSNSWMNWVKQRPGKGLEWIGRIDPGDGDTKYNGKFKGKATLTADKSSSTAYMQLSSLTSEDSAVYFCVRFYYGSNYVGYYFDYWGQGTTLTVSS
VL: DVLMTQTPLSLPVSLGDQASISCRSSQSIVQSNGNTYLEWYLQKPGQSPKLLIYKVSNRFSGVPDRFSGSGSGTDFTLKISRVEAEDLGVYYCFQGSLVPPTFGGGTKLEIK
B2: 46H2A11C7 (antibody, V domains shown)
VH: QVQLKQSGAELVKPGASVKISCRASGYTFTDYFINWVKQRPGQGLEWIGKIGPGSGNIYQNEKFKDKATLTTDTSSSTAYMQLSSLTSEDSAVYFCARWGIQRGWGQGTTLTVSS
VL: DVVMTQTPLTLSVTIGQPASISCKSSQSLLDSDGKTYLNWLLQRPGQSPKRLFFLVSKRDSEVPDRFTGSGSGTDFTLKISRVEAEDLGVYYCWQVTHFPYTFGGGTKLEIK
B3: 43E8F5B6 (antibody, V domains shown)
VH: EVQLQQSGPELVKPGASVKISCKASGYTFTDYYMSWMKQSHGKSLEWIGDINPNNGDNIYNQKFKGKATLTVDRSSSTAYMDLRSLTSEDSAVYYCARWYYYVSSFSYWYFDVWGTGTTVTVSS
VL: EIVLTQSPTTMAASPGEKITITCSATSSINSNYLHWYQQKPGFSPKLLIYRTSNLASGVPARFSGSGSGTSYSLTIGTMEAEDVATYYCQQGRTIPRTFGSGTKLEIK
B4: 8B5D1A9 (antibody, V domains shown)
VH: QVQLKQSGAELVKPGASVKISCKTSGYIFTDYYINWMKQRPGQGLEWIGKIGPGSGTTFYNEKFKGKATLTADKSSTTLYMQLSSLTAEDSAVYFCTRRGYYSSSYFYWGQGTTLTVSS
VL: DIVMTQSPSSLSVSAGEKVIMSCKSSQSLLNSERQKNYLAWYQQKPGQSPKLLIYGASTRESGVPDRFTGSGSGTDFTLTISSVQAEDLAVYYCLNDHSYPLTFGAGTKLELK
B5: 5F8E2C11 (antibody, V domains shown)
VH: QVQLRQSGPGLVQPSQSLSITCTVSGFSLTSYGVHWVRQSPGKGLEWLGVIWSGGSTDYNAAFISRLSISKDYSKSQIFLTMNSLQTDDTAIYYCARNSRLGNCFDYWGQGTTLTVSS
VL: DIVMSQSPSSLAVSAGEKVTMSCKSSQSLLNSRTRKNYLAWYQQKPGQSPKLLIYWASTRESGVPDRFTGSGSGTDFTLTISSVQAEDLAVYYCKQSYNLPAFGGGTKLEIK
B6: 9D5A12G7 (antibody, V domains shown)
VH: QVQLKQSGPGLVQPSQSLSITCTVSGFSLTSYGVHWVRQSPGKGLEWLGVIWSGGSTDYNAAFISRLSISKDNSKSQVFFKMNSLQADDTAIYYCARNGLLGNAMDYWGQGTSVTVSS
VL: DIVMSQSPSSLAVSAGEKVTMSCKSSQSLLSSRTRKNYLAWYQQKPGQSPKLLIYWASTRESGVPDRFTGSGSGTDFTLTISSVQTEDLAVYYCKQSYNLLTFGAGTTLELK
B7: 2A12B2B2 (antibody, V domains shown)
VH: QVQLQQPGADLVKPGASVKMSCKASGYILTTYWITWVKQRPGQGLEWIGDIHPGSGSTKYNEKFKSKATLTVDTSSSTAYMQLTRLSSEDSAVYYCARRDYWGQGTTLTVSS
VL: DIQMTQTTSSLSASLGDKVTISCRASQDISNYLSWYQQKPDGTVKLLIYWISRLHSGVPSRFSGSGSGTDFSLTISNLEQEDIATYFCQQGNSLPPTFGGGTKLEVK

Molecular target: T1, human C5aR (human, UniProt P21730 1-350)
T1 chain: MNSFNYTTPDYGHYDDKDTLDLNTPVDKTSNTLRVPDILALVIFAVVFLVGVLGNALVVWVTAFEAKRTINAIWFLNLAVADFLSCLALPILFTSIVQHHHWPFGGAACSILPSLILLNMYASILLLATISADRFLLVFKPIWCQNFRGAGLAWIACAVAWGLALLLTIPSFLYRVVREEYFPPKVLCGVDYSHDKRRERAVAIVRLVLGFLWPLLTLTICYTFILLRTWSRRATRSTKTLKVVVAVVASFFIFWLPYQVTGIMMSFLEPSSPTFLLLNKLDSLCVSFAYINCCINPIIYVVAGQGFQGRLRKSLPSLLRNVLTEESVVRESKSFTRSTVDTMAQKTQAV
Assay: cell-based or functional assay
Further: test concentration or dose not given here.

In order of rising “C5a-induced human neutrophil migration, Celltiter-Glo fluorescence intensity value, Parallel sample 1” value:
1. B6  175 fluorescence intensity
2. B5  575 fluorescence intensity
3. B4  655 fluorescence intensity
4. B7  670 fluorescence intensity
5. B3  844 fluorescence intensity
6. B1  1200 fluorescence intensity
7. B2  1460 fluorescence intensity

In order of rising “C5a-induced human neutrophil migration, Celltiter-Glo fluorescence intensity value, Parallel sample 2” value:
1. B6  211 fluorescence intensity
2. B5  429 fluorescence intensity
3. B7  597 fluorescence intensity
4. B4  713 fluorescence intensity
5. B3  808 fluorescence intensity
6. B1  1480 fluorescence intensity
7. B2  1510 fluorescence intensity

In order of rising “C5a-induced human neutrophil migration, Celltiter-Glo fluorescence intensity value, Parallel sample 3” value:
1. B7  233 fluorescence intensity
2. B1  298 fluorescence intensity
3. B5  400 fluorescence intensity
4. B6  575 fluorescence intensity
5. B3  706 fluorescence intensity
6. B4  706 fluorescence intensity
7. B2  1930 fluorescence intensity

In order of rising “C5a-induced human neutrophil migration, Celltiter-Glo fluorescence intensity value, Parallel sample 4” value:
1. B7  204 fluorescence intensity
2. B5  313 fluorescence intensity
3. B1  335 fluorescence intensity
4. B6  611 fluorescence intensity
5. B4  750 fluorescence intensity
6. B3  757 fluorescence intensity
7. B2  2040 fluorescence intensity
